Experiments:
[1] = tested on: CN(C)c1ccc(N=Nc2ccc(S(=O)(=O)N[C@@H](CC[S@@+](C)[O-])C(=O)O)cc2)cc1; test: DTT-dependent HPLC assay of dabsyl-Met; assay type: biochemical, Helicobacter pylori; settings: 20 mM DTT, 50 mM sodium phosphate pH 7.5, 50 mM NaCl, 37 °C, Met-R-O, methods dabsyl-Met-R-O, MsrB site
[2] = tested on: CN(C)c1ccc(N=Nc2ccc(S(=O)(=O)N[C@@H](CC[S@+](C)[O-])C(=O)O)cc2)cc1; test: DTT-dependent HPLC assay of dabsyl-Met; assay type: biochemical, Helicobacter pylori; settings: 20 mM DTT, 50 mM sodium phosphate pH 7.5, 50 mM NaCl, 37 °C, Met-S-O, methods dabsyl-Met-S-O, MsrA site

“HpMsrAB (WT) (Helicobacter pylori 26695)” was tested, and the Km [1] was 50 ± 20 µM, the kcat [1] was 0.157 ± 0.00667 s⁻¹ and the kcat/Km [1] was 3130 ± 133 M⁻¹ s⁻¹. The Km [2] was 170 ± 60 µM, the kcat [2] was 0.17 ± 0.0217 s⁻¹ and the kcat/Km [2] was 1000 ± 117 M⁻¹ s⁻¹.

— paper PMC8000184, “Structural Insights into a Bifunctional Peptide Methionine Sulfoxide Reductase MsrA/B Fusion Protein from Helicobacter pylori” (Antioxidants, 2021)
